Laboratory results as given in US20120277161A1 (INTER K, published 2012).

B1: RSRARNPLYR peptide (peptide)
peptide: RSRARNPLYR
B2: NPLYR peptide (peptide)
peptide: NPLYR
B3: RARAKNPLYK peptide (peptide)
peptide: RARAKNPLYK
B4: RSKAKNPLYR peptide (peptide)
peptide: RSKAKNPLYR
B5: RSKAKWQTGTNPLYR peptide (peptide)
peptide: RSKAKWQTGTNPLYR
B6: KEKLKNPLFK peptide (peptide)
peptide: KEKLKNPLFK
B7: WQTGT peptide (peptide)
peptide: WQTGT
B8: RSKAK peptide (peptide)
peptide: RSKAK

Each binder was assayed against human ERK2 (human, UniProt P28482 1-360) (assay: cell-based or functional assay).
Chain of human ERK2 (P28482 whole entry): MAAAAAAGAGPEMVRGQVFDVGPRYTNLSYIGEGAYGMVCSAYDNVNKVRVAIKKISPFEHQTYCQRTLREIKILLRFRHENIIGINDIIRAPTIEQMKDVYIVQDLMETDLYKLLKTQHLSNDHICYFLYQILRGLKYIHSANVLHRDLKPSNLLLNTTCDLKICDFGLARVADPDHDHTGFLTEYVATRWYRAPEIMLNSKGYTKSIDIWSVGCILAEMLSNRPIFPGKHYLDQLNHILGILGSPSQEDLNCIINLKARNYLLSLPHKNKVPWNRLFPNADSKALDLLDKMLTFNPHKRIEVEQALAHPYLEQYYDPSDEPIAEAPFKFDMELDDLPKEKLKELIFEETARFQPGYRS

For B1, which “inhibition of ERK2 activity relative to control, cell-free assay, peptide at 50 µM” value is on record?
The value was 4 % inhibition.

What follows are binders tested against cellular Src tyrosine kinase (c-Src) (human, UniProt P12931 1-536, limits assumed) (assay: cell-based or functional assay).

Which “% Inhibition of control, c-Src tyrosine kinase activity, cell-free assay, peptide at 50 µM” value (shortened to “% Inhibition … cell-free assay, peptide at 50 µM”) does the source give for B1 here?
The value was 37 % inhibition.

For B2, which “% Inhibition … cell-free assay, peptide at 50 µM” value is on record?
The value was 0 % inhibition.

With B3 as the binder, how does the “% Inhibition … cell-free assay, peptide at 50 µM” value read?
Its value is 29 % inhibition.

Which “% Inhibition … cell-free assay, peptide at 50 µM” value does the source give for B4 here?
Its value is 57 % inhibition.

For B5, which “% Inhibition … cell-free assay, peptide at 50 µM” value is on record?
The value was 44 % inhibition.

Which “% Inhibition … cell-free assay, peptide at 50 µM” value does the source give for B6 here?
The value was 55 % inhibition.

Which “% Inhibition … cell-free assay, peptide at 50 µM” value does the source give for B7 here?
The value was 0 % inhibition.

B8 was tested. Which “% Inhibition … cell-free assay, peptide at 50 µM” value did it give?
The value was 3 % inhibition.
